In patent US20160264649A1:

What was measured:
Assay in all cases: cell-based or functional assay
HIV-1 CMU02 Env (HIV-1) = biological target: HIV-1 CMU02 Env (HIV-1)
[1] = biological target: HIV-1 MGRM-F1-022 Env (HIV-1)
[2] = biological target: HIV-1 MGRM-D-001 Env (HIV-1)
[3] = biological target: HIV-1 MGRM-AE-002 Env (HIV-1)
[4] = biological target: HIV-1 MGRM-C-005 Env on pseudovirus (HIV-1)
[5] = biological target: HIV-1 MGRM-Chronic-B-023 Env on pseudovirus (HIV-1)
[6] = biological target: HIV-1 MGRM-F1-016 Env (HIV-1)
[7] = biological target: HIV-1 MGRM-F1-008 Env (HIV-1)
[8] = biological target: HIV-1 QH0692.42 (Acute) Env on pseudovirus (HIV-1)
[9] = biological target: HIV-1 MGRM-D-003 Env (HIV-1)
[10] = biological target: HIV-1 92UG001 Env (HIV-1)
[11] = biological target: HIV-1 MGRM-C-001 Env on pseudovirus (HIV-1)
[12] = biological target: HIV-1 NL43 Env on pseudovirus (HIV-1)
[13] = biological target: HIV-1 MGRM-C-020 Env on pseudovirus (HIV-1)
[14] = biological target: HIV-1 93UG077 Env (HIV-1)
[15] = biological target: HIV-1 MGRM-C-002 Env on pseudovirus (HIV-1)
[16] = biological target: HIV-1 MGRM-Chronic-B-008 Env on pseudovirus (HIV-1)
[17] = biological target: HIV-1 TRO.11 (Acute) Env on pseudovirus (HIV-1)
[18] = biological target: HIV-1 MGRM-D-004 Env (HIV-1)
[19] = biological target: HIV-1 Env of isolate MGRM-F1-006 (subtype F) (HIV-1)
[20] = biological target: HIV-1 Env of isolate 94UG103 (subtype A) (HIV-1)
[21] = biological target: HIV-1 Env of isolate MG RM-C-025 (subtype C) (HIV-1)
[22] = biological target: HIV-1 Env of isolate MG RM-C-028 (subtype C) (HIV-1)
[23] = biological target: HIV-1 Env of isolate SC422661.8 (subtype B) (HIV-1)
[24] = biological target: HIV-1 Env of isolate 98CN009 (subtype CRF07_BC) (HIV-1)
[25] = biological target: HIV-1 Env of isolate MGRM-D-020 (subtype D) (HIV-1)
[26] = biological target: HIV-1 Env of isolate MGRM-D-012 (subtype D) (HIV-1)
[27] = biological target: HIV-1 Env of isolate MGRM-D-004 (subtype D) (HIV-1)
[28] = biological target: HIV-1 Env of isolate VLGCA1 (subtype A) (HIV-1)
[29] = biological target: HIV-1 Env of isolate MGRM-Chronic-B-017 (subtype B) (HIV-1)
[30] = biological target: HIV-1 Env of isolate 92WR024 (subtype A) (HIV-1)
[31] = biological target: HIV-1 Env of isolate MG RM-C-026 (subtype C) (HIV-1)
[32] = biological target: HIV-1 Env of isolate MGRM-Chronic-B-010 (subtype B) (HIV-1)
[33] = biological target: HIV-1 Env of isolate MGRM-D-005 (subtype D) (HIV-1)
[34] = biological target: HIV-1 Env of isolate MGRM-Chronic-B-004 (subtype B) (HIV-1)
[35] = biological target: HIV-1 Env of isolate MGRM-D-028 (subtype D) (HIV-1)
[36] = biological target: HIV-1 Env of isolate 92UG031 (subtype A) (HIV-1)
[37] = biological target: HIV-1 Env of isolate MGRM-D-011 (subtype D) (HIV-1)
[38] = biological target: HIV-1 Env of isolate 92UG114 (subtype D) (HIV-1)
[39] = biological target: HIV-1 Env of isolate MGRM-F1-010 (subtype F) (HIV-1)
[40] = biological target: HIV-1 Env of isolate 93IN905 (subtype C) (HIV-1)
[41] = biological target: HIV-1 Env of isolate MGRM-D-003 (subtype D) (HIV-1)
[42] = biological target: HIV-1 Env of isolate MGRM-D-016 (subtype D) (HIV-1)
[43] = biological target: HIV-1 Env of isolate MGRM-D-002 (subtype D) (HIV-1)
[44] = biological target: HIV-1 Env of isolate MG RM-C-022 (subtype C) (HIV-1)
[45] = biological target: HIV-1 Env of isolate MG RM-C-027 (subtype C) (HIV-1)
[46] = biological target: HIV-1 Env of isolate 93TH305 (subtype B) (HIV-1)
[47] = biological target: HIV-1 MGRM-F1-013 Env (HIV-1)

Sequence of 1443_C16 (PG16) (TCN-116) (antibody) (VH): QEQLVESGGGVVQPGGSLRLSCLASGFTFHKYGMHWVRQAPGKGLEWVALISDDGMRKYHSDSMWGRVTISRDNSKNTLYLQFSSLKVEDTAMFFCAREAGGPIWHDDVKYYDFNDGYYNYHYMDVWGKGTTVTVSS
Sequence of 1443_C16 (PG16) (TCN-116) (antibody) (VL): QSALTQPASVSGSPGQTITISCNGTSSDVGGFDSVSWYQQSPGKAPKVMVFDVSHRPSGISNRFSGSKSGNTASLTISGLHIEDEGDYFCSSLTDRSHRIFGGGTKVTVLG

4E10 (antibody)
IC50 (µg/ml), pseudovirus neutralization (HIV-1 CMU02 Env (HIV-1)): 0.72 µg/mL | neutralization IC50 (HIV-1 CMU02 Env (HIV-1)): 0.59 mg/L | neutralization IC90 (HIV-1 CMU02 Env (HIV-1)): 13.4 mg/L | IC50 (pseudovirus neutralization) [1]: 1.01 mg/L | IC50 (µg/ml), pseudovirus neutralization [2]: 1.84 µg/mL | IC50 (µg/ml), pseudovirus neutralization [3]: 0.55 µg/mL | IC50 [4]: 16.4 mg/L | IC50 [5]: 27.9 mg/L | IC50 (pseudovirus neutralization) [6]: 7.61 mg/L | IC50 (pseudovirus neutralization) [7]: 2.75 mg/L | IC50 [8]: 12.7 mg/L | IC50 (µg/ml), pseudovirus neutralization [9]: 2.49 µg/mL | IC50 (µg/ml), pseudovirus neutralization [10]: 13.6 µg/mL | IC50 [11]: 5.66 mg/L | IC50 [12]: 4.67 mg/L | IC50 [13]: 2.8 mg/L | neutralization IC50 [14]: 11.2 mg/L | neutralization IC90 [14]: > 50 mg/L | IC50 [15]: 18.2 mg/L | IC50 [16]: 16.7 mg/L | IC50 [17]: 1.39 mg/L | IC50 (µg/ml), pseudovirus neutralization [18]: 1.58 µg/mL

PGV04 (antibody)
IC50 (pseudovirus neutralization) [19]: > 50 mg/L | IC50 (pseudovirus neutralization) [20]: 0.202 mg/L | IC50 (µg/mL), pseudovirus neutralization [21]: > 50 µg/mL | IC50 (µg/mL), pseudovirus neutralization [22]: 0.149 µg/mL | IC50 [23]: 0.11 mg/L | IC50 (neutralization) [24]: 0.0125 mg/L | IC50 (pseudovirus neutralization) [25]: 0.097 mg/L | IC50 (pseudovirus neutralization) [26]: 0.125 mg/L | IC50 (pseudovirus neutralization) [27]: 43.2 mg/L | IC50 (pseudovirus neutralization) [28]: 0.024 mg/L | IC50 [29]: 0.129 mg/L | IC50 (pseudovirus neutralization) [30]: 0.31 mg/L | IC50 (µg/mL), pseudovirus neutralization [31]: 0.303 µg/mL | IC50 [32]: 0.744 mg/L | IC50 (pseudovirus neutralization) [33]: > 50 mg/L | IC50 [34]: 0.047 mg/L | IC50 (pseudovirus neutralization) [35]: 1.01 mg/L | IC50 (pseudovirus neutralization) [36]: 4.46 mg/L | IC50 (pseudovirus neutralization) [37]: 0.025 mg/L | IC50 (pseudovirus neutralization) [38]: 0.461 mg/L | IC50 (pseudovirus neutralization) [39]: 0.184 mg/L | IC50 (µg/mL), pseudovirus neutralization [40]: 0.332 µg/mL | IC50 (pseudovirus neutralization) [41]: > 50 mg/L | IC50 (pseudovirus neutralization) [42]: 0.201 mg/L | IC50 (pseudovirus neutralization) [43]: 0.322 mg/L | IC50 (µg/mL), pseudovirus neutralization [44]: 18.3 µg/mL | IC50 (µg/mL), pseudovirus neutralization [45]: 2.76 µg/mL | IC50 [46]: 0.255 mg/L

1496_C09 (PG9) (TCN-109) (antibody)
IC50 (pseudovirus neutralization) [19]: 7.25 mg/L | IC50 (µg/ml), pseudovirus neutralization (HIV-1 CMU02 Env (HIV-1)): 7.69 µg/mL | IC50 (pseudovirus neutralization) [1]: 0.06 mg/L | IC50 (pseudovirus neutralization) [20]: 0.34 mg/L | IC50 (µg/mL), pseudovirus neutralization [21]: 0.148 µg/mL | IC50 (µg/mL), pseudovirus neutralization [22]: 0.067 µg/mL | IC50 [23]: 1.48 mg/L | IC50 (neutralization) [24]: 0.371 mg/L | IC50 (µg/ml), pseudovirus neutralization [3]: 0.04 µg/mL | IC50 (pseudovirus neutralization) [25]: 1.67 mg/L | IC50 (pseudovirus neutralization) [26]: 16.2 mg/L | IC50 [4]: 2.98 mg/L | IC50 [5]: 0.04 mg/L | IC50 (pseudovirus neutralization) [27]: 0.06 mg/L | IC50 (pseudovirus neutralization) [6]: 0.58 mg/L | IC50 (pseudovirus neutralization) [28]: 0.069 mg/L | IC50 [29]: 0.688 mg/L | IC50 (pseudovirus neutralization) [30]: 0.258 mg/L | IC50 (µg/mL), pseudovirus neutralization [31]: 0.06 µg/mL | IC50 (pseudovirus neutralization) [47]: 0.56 mg/L | IC50 (µg/ml), pseudovirus neutralization [10]: 41.8 µg/mL | IC50 [32]: 0.004 mg/L | IC50 (pseudovirus neutralization) [33]: 1.8 mg/L | IC50 [12]: 0.32 mg/L | IC50 [34]: 0.533 mg/L | IC50 (pseudovirus neutralization) [35]: 20.2 mg/L | IC50 (pseudovirus neutralization) [36]: 3.6 mg/L | IC50 (pseudovirus neutralization) [37]: 0.071 mg/L | IC50 (pseudovirus neutralization) [38]: 40.6 mg/L | IC50 (pseudovirus neutralization) [39]: 0.012 mg/L | IC50 [16]: 6.66 mg/L | IC50 (µg/mL), pseudovirus neutralization [40]: 0.035 µg/mL | IC50 [17]: 5.43 mg/L | IC50 (pseudovirus neutralization) [41]: 0.033 mg/L | IC50 (pseudovirus neutralization) [42]: 0.098 mg/L | IC50 (µg/ml), pseudovirus neutralization [18]: 0.03 µg/mL | IC50 (pseudovirus neutralization) [43]: 0.021 mg/L | IC50 (µg/mL), pseudovirus neutralization [44]: 0.346 µg/mL | IC50 (µg/mL), pseudovirus neutralization [45]: 5.36 µg/mL | IC50 [46]: 8.12 mg/L

VRC01 (antibody)
IC50 (pseudovirus neutralization) [19]: 2.86 mg/L | IC50 (pseudovirus neutralization) [20]: 0.285 mg/L | IC50 [21]: 2.36 mg/L | IC50 [22]: 0.319 mg/L | IC50 [23]: 0.179 mg/L | IC50 (neutralization) [24]: 0.346 mg/L | IC50 (pseudovirus neutralization) [25]: 0.192 mg/L | IC50 (pseudovirus neutralization) [26]: 0.216 mg/L | IC50 (pseudovirus neutralization) [27]: 1.25 mg/L | IC50 (pseudovirus neutralization) [28]: 0.163 mg/L | IC50 [29]: 0.141 mg/L | IC50 (pseudovirus neutralization) [30]: 0.327 mg/L | IC50 [31]: 0.707 mg/L | IC50 [32]: 0.156 mg/L | IC50 (pseudovirus neutralization) [33]: > 50 mg/L | IC50 [34]: 0.055 mg/L | IC50 (pseudovirus neutralization) [35]: 0.377 mg/L | IC50 (pseudovirus neutralization) [36]: 0.469 mg/L | IC50 (pseudovirus neutralization) [37]: 0.075 mg/L | IC50 (pseudovirus neutralization) [38]: 0.33 mg/L | IC50 (pseudovirus neutralization) [39]: 0.097 mg/L | IC50 [40]: 0.138 mg/L | IC50 (pseudovirus neutralization) [41]: 2.06 mg/L | IC50 (pseudovirus neutralization) [42]: 0.452 mg/L | IC50 (pseudovirus neutralization) [43]: 0.252 mg/L | IC50 [44]: 13 mg/L | IC50 [45]: 0.125 mg/L | IC50 [46]: 0.243 mg/L

1443_C16 (PG16) (TCN-116) (antibody)
IC50 (µg/ml), pseudovirus neutralization (HIV-1 CMU02 Env (HIV-1)): 43.6 µg/mL | neutralization IC50 (HIV-1 CMU02 Env (HIV-1)): > 50 mg/L | neutralization IC90 (HIV-1 CMU02 Env (HIV-1)): > 50 mg/L | IC50 (pseudovirus neutralization) [1]: 0.08 mg/L | IC50 (µg/ml), pseudovirus neutralization [2]: > 50 µg/mL | IC50 (µg/ml), pseudovirus neutralization [3]: 0.01 µg/mL | IC50 [4]: 2.55 mg/L | IC50 [5]: 0.13 mg/L | IC50 (pseudovirus neutralization) [6]: 1.12 mg/L | IC50 (pseudovirus neutralization) [7]: > 50 mg/L | IC50 [8]: > 50 mg/L | IC50 (µg/ml), pseudovirus neutralization [9]: 0.01 µg/mL | IC50 (µg/ml), pseudovirus neutralization [10]: > 50 µg/mL | IC50 [11]: 16.8 mg/L | IC50 [12]: 0.02 mg/L | IC50 [13]: > 50 mg/L | neutralization IC50 [14]: > 50 mg/L | neutralization IC90 [14]: > 50 mg/L | IC50 [15]: 28.3 mg/L | IC50 [16]: 0.73 mg/L | IC50 [17]: 0.22 mg/L | IC50 (µg/ml), pseudovirus neutralization [18]: 0.01 µg/mL
